Values belong to the binder of their own block, whether it stands above or below them.
What was measured:
Fr + Ki = target: T1, Fr + Ki (human, UniProt Q01973); assay: ELISA on directly coated hFc fusion proteins of hROR1 domains; anti-His-HRP; A405
T1 construct: Frizzled and Kringle domains of the extracellular domain; also called hFc-hROR1-Fr-Ki
Description: (§1) ELISA: For ELISA (FIG. 2), each well of a 96-well Costar 3690 plate (Corning, Corning, N.Y.) was coated with 100 ng anti-human IgG1 Fc in 25 μL coating buffer (0.1 M Na₂CO₃, 0.1 M NaHCO₃, pH 9.6) for 1 h at 37° C. After blocking with 150 μL 3% (w/v) BSA/TBS for 1 h at 37° C., hFc-hROR1 or hFc-mROR1 was captured following incubation at 100 ng/50 μL for 1 h at 37° C. Then 100 ng/50 μL of Fab was applied in each well at 37° C. 2 h later, 50 μL of a 1:1000 dilution of a mouse anti-His tag mAb conjugated to horse radish peroxidase (HRP) (R&D Systems, Minneapolis, Minn.) in 1% (w/v) BSA/TBS was used to detect the Fab. To determine the epitopes (FIG. 4), hFc fusion proteins containing different domains of hROR1 were coated directly, followed by incubation with Fab before detection by mouse anti-His tag mAb conjugated to HRP. Washing with PBS was repeated and colorimetric detection was performed using 2,2′-azino-bis(3-ethylbenzthiazoline)-6-sulfonic acid (Roche) as substrate according to the manufacturer's directions. The absorbance was measured at 405 nm using a SpectraMax M5 microplate reader (Molecular Devices; Sunnyvale, Calif.) and SoftMax Pro software (Molecular Devices).

Fr = target: T2, Fr; assay: as above
T2 construct: also called hFc-hROR1-Fr
T2 sequence (chain, as listed by the source limits assumed): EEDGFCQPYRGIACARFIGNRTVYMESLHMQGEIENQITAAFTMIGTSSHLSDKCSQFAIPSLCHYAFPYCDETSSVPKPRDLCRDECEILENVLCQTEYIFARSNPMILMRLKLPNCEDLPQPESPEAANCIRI
Description: as §1

Kr = target: T3, Kr (human, UniProt Q01973); assay: as above
T3 construct: Kringle domain of the extracellular domain; also called hFc-hROR1-Kr
T3 sequence (Q01973 312-391 limits assumed): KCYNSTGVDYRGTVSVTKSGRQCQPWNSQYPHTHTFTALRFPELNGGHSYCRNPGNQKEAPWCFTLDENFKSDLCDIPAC
Description: as §1

Ig = target: T4, Ig (human, UniProt Q01973); assay: as above
T4 construct: Ig domain of the extracellular domain; also called hFc-hROR1-Ig
T4 sequence (Q01973 42-147 limits assumed): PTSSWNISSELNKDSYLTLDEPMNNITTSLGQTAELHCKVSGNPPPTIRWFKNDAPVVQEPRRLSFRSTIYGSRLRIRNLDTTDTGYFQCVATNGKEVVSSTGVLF
Description: as §1

hROR2 = target: T5, hROR2 (human, UniProt Q01974); assay: flow cytometry on 63-12 / hROR2 cells; anti-His Alexa Fluor 488
T5 construct: full length, on the cell surface; also called 63-12 / hROR2; ROR2 on T47D cells
T5 sequence (Q01974 34-943 limits assumed): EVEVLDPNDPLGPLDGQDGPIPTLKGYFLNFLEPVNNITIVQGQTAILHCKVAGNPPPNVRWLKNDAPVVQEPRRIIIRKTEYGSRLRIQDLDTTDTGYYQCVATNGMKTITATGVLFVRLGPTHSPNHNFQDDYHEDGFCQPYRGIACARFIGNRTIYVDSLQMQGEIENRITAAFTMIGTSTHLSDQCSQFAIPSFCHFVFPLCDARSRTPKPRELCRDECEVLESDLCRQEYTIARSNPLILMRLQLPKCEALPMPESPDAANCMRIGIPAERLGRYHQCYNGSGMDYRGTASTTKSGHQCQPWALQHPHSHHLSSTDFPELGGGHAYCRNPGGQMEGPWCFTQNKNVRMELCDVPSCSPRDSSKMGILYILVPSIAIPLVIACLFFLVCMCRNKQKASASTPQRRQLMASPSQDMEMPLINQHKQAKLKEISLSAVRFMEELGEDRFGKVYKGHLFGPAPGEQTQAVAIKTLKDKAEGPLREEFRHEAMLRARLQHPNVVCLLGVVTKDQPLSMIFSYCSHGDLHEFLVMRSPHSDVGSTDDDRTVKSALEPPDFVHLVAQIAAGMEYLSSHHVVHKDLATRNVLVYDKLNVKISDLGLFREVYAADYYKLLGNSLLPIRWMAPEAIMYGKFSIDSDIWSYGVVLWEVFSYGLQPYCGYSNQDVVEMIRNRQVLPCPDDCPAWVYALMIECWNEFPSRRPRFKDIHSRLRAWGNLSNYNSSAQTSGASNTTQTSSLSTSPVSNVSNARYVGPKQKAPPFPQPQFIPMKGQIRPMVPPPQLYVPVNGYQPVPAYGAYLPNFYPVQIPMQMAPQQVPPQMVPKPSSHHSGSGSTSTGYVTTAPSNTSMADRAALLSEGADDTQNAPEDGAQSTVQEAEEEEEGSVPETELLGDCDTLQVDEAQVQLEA
Description: Flow cytometry: Cells were stained using standard flow cytometry methodology. Briefly, for purified anti-ROR1 Fab (FIG. 3), 0.1-1×10⁶ cells were stained with 1000 ng/100 μL of Fab on ice for 1 h. After washing twice with ice-cold flow cytometry buffer (PBS containing 1% (v/v) BSA, 0.1% sodium azide and 1 mM EDTA), the cells were incubated with a 1:1000 dilution of a mouse anti-His tag mAb conjugated to Alexa Fluor 488 (Qiagen) in 100 μL flow cytometry buffer on ice for 30 min. For purified anti-ROR1 IgG1 (FIG. 8), 0.1-1×10⁶ cells were blocked by 4% goat serum for 15 min at room temperature and then incubated with 100 ng/100 μL of IgG on ice for 1 h. After washing twice with ice-cold flow cytometry buffer, cells were stained with a 1:500 dilution of goat anti-human IgG, Fcγ pAbs conjugated to APC (Jackson ImmunoResearch) in 100 μL flow cytometry buffer on ice for 30 min. For commercial goat anti human ROR1 polyclonal antibody (FIG. 8), 0.1-1×10⁶ cells were stained with 200 ng/100 μL of Ab on ice for 1 h. […] Finally, 4′,6-diamidino-2-phenylindole (DAPI) was added to a final concentration of 100 ng/mL to exclude dead cells from the analysis. Cells were analyzed using a FACSCalibur instrument (BD Biosciences) and FlowJo analytical software (Tree Star, Ashland, Oreg.).

[1] = target: T6, hFc-hROR2 (extracellular domain of human ROR2 fused to the Fc domain of human IgG1) (human, UniProt Q01974 34-403); assay: ELISA as for hFc-hROR1; third bar series, keyed 'hFc-hROR1' a second time on the sheet, taken as hFc-hROR2 by legend paragraph 27
T6 construct: extracellular domain; not shown: Fc domain of human IgG1
T6 sequence (Q01974 34-403): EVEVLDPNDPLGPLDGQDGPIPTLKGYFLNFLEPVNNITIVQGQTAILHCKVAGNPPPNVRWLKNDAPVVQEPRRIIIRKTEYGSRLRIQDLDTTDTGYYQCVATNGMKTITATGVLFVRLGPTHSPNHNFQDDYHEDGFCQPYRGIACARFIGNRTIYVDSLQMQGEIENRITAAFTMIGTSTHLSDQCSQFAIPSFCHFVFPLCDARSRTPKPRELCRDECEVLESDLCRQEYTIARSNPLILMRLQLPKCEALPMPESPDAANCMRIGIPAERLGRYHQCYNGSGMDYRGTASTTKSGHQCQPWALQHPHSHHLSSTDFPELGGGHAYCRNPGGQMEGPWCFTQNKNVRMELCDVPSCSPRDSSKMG
Description: The binding of each chimeric rabbit/human Fab to hROR1 and mROR1 fused with human IgG1 Fc (hFc-hROR1 and hFc-mROR1) was analyzed by ELISA. hFc-ROR1 or hFc-mROR1 were captured by anti-human IgG1 Fc antibody immobilized on plate and then incubated with hROR1 specific Fabs comprising a His-tag via detection with mouse anti-His tag.
as §1

T1 sequence (Q01973 165-391 limits assumed): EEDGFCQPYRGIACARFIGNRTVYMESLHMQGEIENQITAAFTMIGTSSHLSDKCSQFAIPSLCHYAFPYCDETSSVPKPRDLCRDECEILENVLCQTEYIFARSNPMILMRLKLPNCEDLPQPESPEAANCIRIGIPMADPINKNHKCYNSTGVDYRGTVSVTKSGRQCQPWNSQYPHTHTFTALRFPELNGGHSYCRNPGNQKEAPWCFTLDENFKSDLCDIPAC

binding result (Fr + Ki): no binding
binding result (Fr): no binding
binding result (Kr): no binding
binding result (Ig): no binding
binding result (hROR2): no binding (tested: 1000 ng/100 µL)
binding result [1]: no binding (tested: 100 ng/50 µL)
B1: ERR1-306 chimeric rabbit/human Fab (Fab, V domains shown)
VH: QEQLKESGGGLVQPGGSLKLSCKASGFDLSNYGVSWVRQAPGKGLEWIGYIDPTFDYTYYASWVNGRFSISRENTQNTVSLQINSLTPADTATYFCARWVYGVDDYGDGNWLDLWGQGTLVTISS
VL: QFVLTQSPSVSAALGASAKLTCTLSSAHKTYTIDWYQQQQGEAPRYLMELKSDGSYTKGTGVPDRFSGSSSGADRYLIIPSVQADDEADYYCGTDYSGGYVFGGGTQLTVTG
notes: Chimeric rabbit/human Fab with His tag, expressed in E. coli (pET11a); lambda light chain

binding result (Fr + Ki): no binding
binding result (Fr): no binding
binding result (Kr): no binding
binding result [1]: no binding (tested: 100 ng/50 µL)
B2: ERR1-TOP40 chimeric rabbit/human Fab (Fab, V domains shown)
VH: QEQLEESGGRLVTPGTPLTLTCTASGFSLSNYYMSWVRQAPGKGLEYIGIISSSGSTYYASWAKGRFTISKTSSTTVDLKITSPTTEDTATYFCARLYVSDSTANLWGPGTLVTVSS
VL: DIVLTQTPSSTSAAVGGTVTIKCQASQSIDSYLAWYQQKPGQPPKLLIYGASNLASGVPSRFSGSRSGTEYILTISGVQREDAATYYCLGGYPNYFHRTAFGGGTKLEIK
notes: Chimeric rabbit/human Fab with His tag, expressed in E. coli (pET11a); kappa light chain

binding result (Fr + Ki): no binding
binding result (Fr): no binding
binding result (Kr): no binding
binding result [1]: no binding (tested: 100 ng/50 µL)
B3: ERR1-324 chimeric rabbit/human Fab (Fab, V domains shown)
VH: QSLEESGGGLVQPGESLTLTCTVSGFSLSRNGMTWVRQAPGKGLEWIGIITSSGDKYYATWAKGRFTISKTSSTTVDLKMTSLTTEDTATYFCARGTVSSDIWGPGTLVTISS
VL: ELVLTQTPSPVSAAVGGTVTINCQASQSVYGNNELAWYQQKPGQPPKLLIYRASILTSGVPSRFKGSGSGTQFTLTISNVQREDAATYYCLGGYVSQSYRAAFGGGTELEIL
notes: as for B2
